Results as given in US20230028476A1 (EVOTEC INTERNATIONAL, published 2023).

Assays:
[1] = target: human IFN receptor on HEK-Blue IFN-α/β cells (human); test: cell-based or functional assay
human CD40 = human CD40 (human, UniProt P25942 21-277); test: cell-based or functional assay
Sequence of human CD40 (P25942 21-277): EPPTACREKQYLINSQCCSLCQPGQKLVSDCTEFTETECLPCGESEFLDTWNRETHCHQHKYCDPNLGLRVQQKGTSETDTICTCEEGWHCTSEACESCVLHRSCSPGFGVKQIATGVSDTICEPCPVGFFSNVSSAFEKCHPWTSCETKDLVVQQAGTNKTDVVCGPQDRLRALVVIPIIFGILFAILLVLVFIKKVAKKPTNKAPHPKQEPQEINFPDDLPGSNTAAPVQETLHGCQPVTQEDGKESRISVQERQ

IFNβ EC50 (HEK-Blue IFN-α/β reporter cells) [1] [µg/mL] | CD40 EC50 (HEK-Blue CD40L reporter cells) (human CD40) [µg/mL] | IFNε EC50 (HEK-Blue IFN-α/β reporter cells) [1] [µg/mL] | Binder
0.00164 | 0.0741 | – | IFA1 (antibody, human IgG2, kappa) light: DIQMTQSPSSVSASVGDRVTITCRASQGIYSWLAWYQQKPGKAPNLLIYTASTLQSGVPSRFSGSGSGTDFTLTISSLQPEDFATYYCQQANIFPLTFGGGTKVEIKRTVAAPSVFIFPPSDEQLKSGTASVVCLLNNFYPREAKVQWKVDNALQSGNSQESVTEQDSKDSTYSLSSTLTLSKADYEKHKVYACEVTHQGLSSPVTKSFNRGECAEAAAKEAAAKAMSYNLLGFLQRSSNFQCQKLLWQLNGRLEYCLKDRMNFDIPEEIKQLQQFQKEDAALTIYEMLQNIFAIFRQDSSSTGWNETIVENLLANVYHQINHLKTVLEEKLEKEDFTRGKLMSSLHLKRYYGRILHYLKAKEYSHCAWTIVRVEILRNFYFINRLTGYLRN heavy: not shown
0.00014 | 0.111 | – | IFA2 (antibody, human IgG2, kappa) light: DIQMTQSPSSVSASVGDRVTITCRASQGIYSWLAWYQQKPGKAPNLLIYTASTLQSGVPSRFSGSGSGTDFTLTISSLQPEDFATYYCQQANIFPLTFGGGTKVEIKRTVAAPSVFIFPPSDEQLKSGTASVVCLLNNFYPREAKVQWKVDNALQSGNSQESVTEQDSKDSTYSLSSTLTLSKADYEKHKVYACEVTHQGLSSPVTKSFNRGECAEAAAKEAAAKAMSYNLLGFLQRSSNFQSQKLLWQLNGRLEYCLKDRMNFDIPEEIKQLQQFQKEDAALTIYEMLQNIFAIFRQDSSSTGWNETIVENLLANVYHQINHLKTVLEEKLEKEDFTRGKLMSSLHLKRYYGRILHYLKAKEYSHCAWTIVRVEILRNFYFINRLTGYLRN heavy: not shown
0.00364 | 0.105 | – | IFA12 (antibody, human IgG2, kappa) light: DIQMTQSPSSVSASVGDRVTITCRASQGIYSWLAWYQQKPGKAPNLLIYTASTLQSGVPSRFSGSGSGTDFTLTISSLQPEDFATYYCQQANIFPLTFGGGTKVEIKRTVAAPSVFIFPPSDEQLKSGTASVVCLLNNFYPREAKVQWKVDNALQSGNSQESVTEQDSKDSTYSLSSTLTLSKADYEKHKVYACEVTHQGLSSPVTKSFNRGECPAPAMSYNLLGFLQRSSNFQCQKLLWQLNGRLEYCLKDRMNFDIPEEIKQLQQFQKEDAALTIYEMLQNIFAIFRQDSSSTGWNETIVENLLANVYHQINHLKTVLEEKLEKEDFTRGKLMSSLHLKRYYGRILHYLKAKEYSHCAWTIVRVEILRNFYFINRLTGYLRN heavy: not shown
0.0007 | 0.192 | – | IFA13 (antibody, human IgG2, kappa) light: DIQMTQSPSSVSASVGDRVTITCRASQGIYSWLAWYQQKPGKAPNLLIYTASTLQSGVPSRFSGSGSGTDFTLTISSLQPEDFATYYCQQANIFPLTFGGGTKVEIKRTVAAPSVFIFPPSDEQLKSGTASVVCLLNNFYPREAKVQWKVDNALQSGNSQESVTEQDSKDSTYSLSSTLTLSKADYEKHKVYACEVTHQGLSSPVTKSFNRGECPAPAMSYNLLGFLQRSSNFQSQKLLWQLNGRLEYCLKDRMNFDIPEEIKQLQQFQKEDAALTIYEMLQNIFAIFRQDSSSTGWNETIVENLLANVYHQINHLKTVLEEKLEKEDFTRGKLMSSLHLKRYYGRILHYLKAKEYSHCAWTIVRVEILRNFYFINRLTGYLRN heavy: not shown
0.0045 | 0.0265 | – | IFA10 (antibody, human IgG2, kappa) heavy: not shown light: DIQMTQSPSSVSASVGDRVTITCRASQGIYSWLAWYQQKPGKAPNLLIYTASTLQSGVPSRFSGSGSGTDFTLTISSLQPEDFATYYCQQANIFPLTFGGGTKVEIKRTVAAPSVFIFPPSDEQLKSGTASVVCLLNNFYPREAKVQWKVDNALQSGNSQESVTEQDSKDSTYSLSSTLTLSKADYEKHKVYACEVTHQGLSSPVTKSFNRGEC
– | 0.0658 | 0.0782 | IFA49 (antibody, human IgG2, kappa) heavy: not shown light: DIQMTQSPSSVSASVGDRVTITCRASQGIYSWLAWYQQKPGKAPNLLIYTASTLQSGVPSRFSGSGSGTDFTLTISSLQPEDFATYYCQQANIFPLTFGGGTKVEIKRTVAAPSVFIFPPSDEQLKSGTASVVCLLNNFYPREAKVQWKVDNALQSGNSQESVTEQDSKDSTYSLSSTLTLSKADYEKHKVYACEVTHQGLSSPVTKSFNRGEC
0.0007 | 0.0426 | – | IFA9 (antibody, human IgG2, kappa) heavy: not shown light: DIQMTQSPSSVSASVGDRVTITCRASQGIYSWLAWYQQKPGKAPNLLIYTASTLQSGVPSRFSGSGSGTDFTLTISSLQPEDFATYYCQQANIFPLTFGGGTKVEIKRTVAAPSVFIFPPSDEQLKSGTASVVCLLNNFYPREAKVQWKVDNALQSGNSQESVTEQDSKDSTYSLSSTLTLSKADYEKHKVYACEVTHQGLSSPVTKSFNRGEC
0.0029 | 0.0397 | – | IFA8 (antibody, human IgG2, kappa) heavy: not shown light: DIQMTQSPSSVSASVGDRVTITCRASQGIYSWLAWYQQKPGKAPNLLIYTASTLQSGVPSRFSGSGSGTDFTLTISSLQPEDFATYYCQQANIFPLTFGGGTKVEIKRTVAAPSVFIFPPSDEQLKSGTASVVCLLNNFYPREAKVQWKVDNALQSGNSQESVTEQDSKDSTYSLSSTLTLSKADYEKHKVYACEVTHQGLSSPVTKSFNRGEC
0.00178 | 0.0428 | – | IFA11 (antibody, human IgG2, kappa) heavy: not shown light: DIQMTQSPSSVSASVGDRVTITCRASQGIYSWLAWYQQKPGKAPNLLIYTASTLQSGVPSRFSGSGSGTDFTLTISSLQPEDFATYYCQQANIFPLTFGGGTKVEIKRTVAAPSVFIFPPSDEQLKSGTASVVCLLNNFYPREAKVQWKVDNALQSGNSQESVTEQDSKDSTYSLSSTLTLSKADYEKHKVYACEVTHQGLSSPVTKSFNRGEC
0.00234 | 0.182 | – | IFA20 (antibody, human IgG2, kappa) light: DIQMTQSPSSVSASVGDRVTITCRASQGIYSWLAWYQQKPGKAPNLLIYTASTLQSGVPSRFSGSGSGTDFTLTISSLQPEDFATYYCQQANIFPLTFGGGTKVEIKRTVAAPSVFIFPPSDEQLKSGTASVVCLLNNFYPREAKVQWKVDNALQSGNSQESVTEQDSKDSTYSLSSTLTLSKADYEKHKVYACEVTHQGLSSPVTKSFNRGECAEAAAKEAAAKAAEAAAKEAAAKAMSYNLLGFLQRSSNFQSQKLLWQLNGRLEYCLKDRMNFDIPEEIKQLQQFQKEDAALTIYEMLQNIFAIFRQDSSSTGWNETIVENLLANVYHQINHLKTVLEEKLEKEDFTRGKLMSSLHLKRYYGRILHYLKAKEYSHCAWTIVRVEILRNFYFINRLTGYLRN heavy: not shown
0.0013 | 0.11 | – | IFA19 (antibody, human IgG2, kappa) light: DIQMTQSPSSVSASVGDRVTITCRASQGIYSWLAWYQQKPGKAPNLLIYTASTLQSGVPSRFSGSGSGTDFTLTISSLQPEDFATYYCQQANIFPLTFGGGTKVEIKRTVAAPSVFIFPPSDEQLKSGTASVVCLLNNFYPREAKVQWKVDNALQSGNSQESVTEQDSKDSTYSLSSTLTLSKADYEKHKVYACEVTHQGLSSPVTKSFNRGECSGGTSGSTSGTGSMSYNLLGFLQRSSNFQSQKLLWQLNGRLEYCLKDRMNFDIPEEIKQLQQFQKEDAALTIYEMLQNIFAIFRQDSSSTGWNETIVENLLANVYHQINHLKTVLEEKLEKEDFTRGKLMSSLHLKRYYGRILHYLKAKEYSHCAWTIVRVEILRNFYFINRLTGYLRN heavy: not shown
